Results from the supplement of paper PMC10567573.

B1: CROP (parent)
chain: VFGRGDNISDVSKFLEDDKWMEE
B2: SNURF (parent)
chain: QVPVVDFQAELRQAFLAETPRGG

Variants of: B1
Assay: protein stability index of a GFP-peptide fusion (GPS, HEK-293T) (PSI 1-6); higher = more stable
Conditions: c terminus: native
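Further: lentivirally expressed fusions sorted by FACS into six bins by GFP to DsRed ratio, PSI derived from sequencing read proportions per bin multiplied by bin number.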

Protein stability index of substitutions, site by site:
F14: A 4.31 | G 2.58 | M 2.42 | L 2.43 | W 1.96 | E 4.92 | N 3.54 | K 4.08 | R 3.29 | V 3.01 | Q 3.34 | I 3.83 | T 4.42 | C 3.8 | P 4.07 | S 4.16 | H 4.16 | D 3.96
F2: A 2.88 | G 2.79 | Y 1.66 | P 2.66 | N 2.87 | T 3.29 | E 4.33 | C 3.7 | K 2.16 | W 2.85 | S 2.83 | Q 2.99 | V 2.64 | D 3.87 | H 3.4 | I 1.8 | L 1.97
S9: G 2.06 | H 2.25 | N 1.78 | Y 2.3 | A 2.31 | Q 2.41 | I 1.97 | P 3.03 | M 2.47 | K 1.62 | D 2.12 | F 1.63 | V 2.11 | L 3.1 | E 2.44 | T 2.43
I8: S 2.48 | L 2.11 | H 1.93 | G 3.51 | T 2.62 | K 2.23 | M 2.05 | R 2.92 | A 2.35 | Y 1.74 | N 1.44 | Q 2.07 | F 2 | E 2.9 | P 2.03 | C 2.81 | D 1.89
R4: K 2.41 | L 1.98 | M 2.77 | G 2.16 | D 2.4 | Q 1.99 | F 2.19 | Y 2.31 | E 2.42 | S 2.33 | I 1.95 | V 1.9 | P 1.51 | C 2.66 | A 2.43 | W 1.39 | T 2.3 | N 2.1 | H 2.19
G3: K 1.44 | Q 2.11 | P 2.84 | H 1.88 | W 2.36 | R 2.1 | D 2.21 | F 1.44 | S 1.82 | M 1.51 | A 2.83 | C 2.48 | V 1.51 | T 2.07
V11: Q 2.87 | I 2.39 | H 2.43 | L 1.61 | W 2.43 | G 2.11 | N 2.33 | Y 1.38 | F 2.15 | C 2.35 | K 2.6 | T 1.49 | A 2.4 | P 3.27 | S 2.71 | R 2.12 | M 2.95 | E 2.39
S12: C 1.73 | F 2.33 | G 1.41 | I 2.32 | K 2.2 | N 2 | D 2 | H 2.31 | A 1.4 | P 1.61 | Y 1.74 | E 2.56 | Q 2.19 | V 1.86 | T 2.67 | R 1.92
N7: Y 1.97 | L 1.42 | R 2.61 | C 2.37 | E 1.4 | S 1.41 | D 2.89 | M 1.64 | H 2.12 | P 1.35 | I 2.21 | V 1.53 | A 1.68 | T 1.89 | Q 1.79 | G 1.77
V1: H 2.59 | G 3.63 | C 1.97 | Q 3 | N 2.25 | R 2.37 | I 1.43 | P 2.76 | E 2.97 | S 2.11 | A 2.11 | D 3.13 | K 2.73 | W 3.69 | M 1.84 | L 2.48
D10: V 2.63 | T 2.74 | I 1.99 | R 1.55 | E 2.1 | P 1.69 | H 3.06 | K 1.99 | M 2.75 | A 1.99 | N 2.04 | S 2.09 | G 2.11
D6: W 4.02 | P 2.32 | R 2.16 | I 2.48 | L 2.91 | H 1.85 | V 2.96 | Q 2.4 | K 2.01 | E 2.42 | S 2.15 | G 2.08
K13: D 2.83 | C 1.74 | T 1.72 | E 2.41 | N 1.91 | V 1.54 | G 2.02 | I 2.69 | H 1.71 | A 2.29 | F 2.04 | M 2.69 | S 2.65 | R 1.89 | P 1.14
G5: Q 2.3 | V 1.61 | Y 1.32 | T 2.63 | D 2.29 | W 2.02 | F 1.88 | N 3.26 | R 1.74 | A 2.03 | P 2.54 | L 2.16 | K 3.07 | S 3.13 | I 2.77 | M 1.14 | C 2.27

Variants of: B2
Assay: as above
Conditions: c terminus: native

Protein stability index, by site and new letter:
G22: L 2.66 | H 2.79 | E 3.26 | S 1.94 | K 2.04 | T 2.57 | Y 2.51 | M 1.95 | V 3.34 | R 2.73 | C 1.99 | D 4.09 | N 2.5 | I 2.95 | F 2.29
G23: Q 2.42 | V 2.52 | I 2.06 | N 1.92 | F 2.27 | W 1.5 | D 3.97 | S 3.16 | T 3.93 | Y 3.06 | K 4.37 | L 3.09 | M 1.71 | A 2.38 | C 1.66 | H 1.77 | E 1.85
F15: K 2.48 | R 1.95 | G 3.47 | W 2.83 | E 2.82 | T 3.19 | Y 1.94
Q13: M 2.42 | S 3.53 | C 1.71 | Y 2.73 | G 4.32 | A 2.68 | D 2.15
Q8: T 3.31 | L 3.47 | V 1.43 | K 5.19 | Y 2.98
R21: K 1.78 | L 2.66 | P 3.47 | N 2.15 | A 4.22
L11: I 2.03 | S 2.27 | R 3.83 | F 3.51 | P 3.34 | K 4.47 | D 2.77 | A 3.6
A14: F 2.58 | H 2.3 | E 3.09 | L 3.5 | K 3.05 | D 2.99 | P 2.12
P20: Y 3.23 | W 3.74 | A 3 | K 2.19 | F 2.27 | C 1.59 | I 3.38
T19: C 3.31 | F 2.29 | A 3.59 | K 3.17 | R 1.63
A17: K 3.45 | I 3.76 | S 2
E18: P 3.59 | C 3.41 | F 1.67 | S 2.02
L16: A 2.42 | Y 3.57 | F 2.03 | P 3.02 | W 1.96 | H 2.13
R12: M 3.51 | E 2.54 | Q 3.27 | P 2.89 | N 2.92 | Y 3.86
A9: D 2.47
E10: A 1.34 | Q 2.59 | P 2.93 | K 2.48 | D 2.15 | F 4 | M 3.19
